Source: the supplement of paper PMC9732359
± gives the uncertainty stated by the source.

Test: protein stability index of a GFP-peptide fusion (yeast GPS) (PSI 1-4); higher = more stable; sorted into four equal gates, so the index is relative within each strain
Method in brief: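 Peptides tiling yeast proteins in 17-residue segments were fused downstream of GFP, with Cherry expressed from the same plasmid. As a pooled library in yeast, mid-log cultures grown in leucine-free medium were sorted into four equal gates by GFP/Cherry fluorescence ratio. Gate plasmids were PCR-amplified and Illumina-sequenced, and barcodes linked reads to strains. Each peptide received a protein stability index equal to the sum of each gate's read frequency times its gate number.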

Sequence	protein stability index (doa10∆)	protein stability index (pdr5∆)	protein stability index (san1∆)	protein stability index (ubr1∆)
EKKAASAKQTAPNNSNG [MED7]	2.94 ± 0.15	3 ± 0.13	2.95 ± 0.14	2.41 ± 0.24
DQLIISSSANKLLQLFL [YML103C/NUP188]	1.91 ± 0.063	2.17 ± 0.066	1.89 ± 0.086	2.54 ± 0.055
NEQLTLLSKKHGQLKLS [RPN5]	1.6 ± 0.066	2.34 ± 0.062	1.83 ± 0.081	2.4 ± 0.079
GAGGLNPFTSATSSTNA [YOR098C/NUP1]	2.04 ± 0.12	2.07 ± 0.18	2.69 ± 0.18	2.94 ± 0.13
GVLLPTRIKLLLTKNVS [RPS6A]	1.43 ± 0.11	1.49 ± 0.11		2.03 ± 0.11
KAERVEDQKVVDKALIA [RPL6A]	3.25 ± 0.057	3.5 ± 0.06	3.4 ± 0.044	3.5 ± 0.05
WEQLKITVVPVVAAAED [QCR6]	1.89 ± 0.059	2.14 ± 0.059	1.99 ± 0.099	2.03 ± 0.033
ELAKEAKKSTTISKEST [ESC2]	2.55 ± 0.13	2.47 ± 0.14	2.63 ± 0.21	2.85 ± 0.063
SKIFRFQNSKSASLFKQ [RPL24A]	2.63 ± 0.097	3.04 ± 0.085	2.54 ± 0.096	2.1 ± 0.073
SDNIASLQYINIRGNTI [SMD1]	3.08 ± 0.059	3.22 ± 0.056	2.86 ± 0.063	3.01 ± 0.048
GLGVNRRILAAAAAAAA [SSN3]	1.44 ± 0.07	1.52 ± 0.083	1.08 ± 0.2	1.95 ± 0.069
LVLADAFDIELSEFGIK [YCS4]	2.92 ± 0.052	3.06 ± 0.057	2.9 ± 0.068	2.89 ± 0.046
KVLKSGSGVDSSKLQLT [RRP42]	2.94 ± 0.14	2.94 ± 0.1	3.16 ± 0.074	3.29 ± 0.1
SNVLDGNKNQFEPSISR [LRP1]	3 ± 0.086	2.95 ± 0.074	3.12 ± 0.046	3.36 ± 0.091
GRDAFHLRVRVHPFHVL [RPL10]	1.7 ± 0.061	2 ± 0.077	1.86 ± 0.11	2.09 ± 0.048
TLSLPDSQDYILSINAI [SMC1]	2.85 ± 0.041	2.95 ± 0.05	2.9 ± 0.04	2.87 ± 0.044
LQIGDVVERHLEDGDVV [RPO31]	3.38 ± 0.088	3.43 ± 0.095	3.49 ± 0.069	3.39 ± 0.098
SAVIIDEFKDITKEVTQ [YIL149C/MLP2]	2.76 ± 0.088	2.89 ± 0.059	2.39 ± 0.06	2.8 ± 0.068
DKFPYKKLELPKYIDEL [SWP82]	2.73 ± 0.074	2 ± 0.058	2.56 ± 0.064	2.83 ± 0.08
ARNVQVHQEPYVFNARP [RPS0A]	3.01 ± 0.098	3.25 ± 0.063	2.99 ± 0.051	3.06 ± 0.063
GQLPQLPKLNLPKYQTI [SNF5]	2.78 ± 0.062	2.67 ± 0.055	2.57 ± 0.074	2.71 ± 0.047
QEGKISSVYRLKFAVQV [RPL26A]	3.09 ± 0.089	3.25 ± 0.11	3.1 ± 0.095	3.76 ± 0.12

Sequence	protein stability index (doa10∆)	protein stability index (pdr5∆)	protein stability index (san1∆)	protein stability index (ubr1∆)
IGTKRFDSEKSGDREVQ [RPT5]	3.15 ± 0.19	3.51 ± 0.2	2.8 ± 0.26	3.41 ± 0.12
YWQYKAGIPIGLKRSQL [SWP82]	1.7 ± 0.13	1.57 ± 0.081	1.69 ± 0.15	1.49 ± 0.049
KQHAVLMLGSVNLPGGI [RRP4]	2 ± 0.049	2.17 ± 0.058	1.94 ± 0.081	1.66 ± 0.037
DKRFSGSLKLPNCPRPN [RPL1A]	2.77 ± 0.073	3.05 ± 0.052	2.94 ± 0.051	2.6 ± 0.046
RDVRDQAAGGLSIRLTN [RPN8]	2.89 ± 0.087	2.85 ± 0.095	2.89 ± 0.097	2.6 ± 0.071
TPQQLQMIQQRHQQLLR [SNF5]	1.9 ± 0.044	2.32 ± 0.045	2.04 ± 0.052	1.74 ± 0.045
IPVKLLNEAQGHIVSLE [SMD3]	3.14 ± 0.12	3.42 ± 0.16	2.77 ± 0.093	3.08 ± 0.11
NNGNNSTSIQYHGISKN [POP6]	2.48 ± 0.063	2.51 ± 0.06	2.65 ± 0.044	2.22 ± 0.07
VILGADSRTTTGAYIAN [PRE3]	2.72 ± 0.13	3.41 ± 0.11	3.12 ± 0.16	2.81 ± 0.13
SVYGLDDISRQVARTNL [ROX3]	2.06 ± 0.058	2.7 ± 0.059	1.96 ± 0.1	2.94 ± 0.046
IEEIEYNVKNIIQGRKN [PCI8]	2.38 ± 0.059	2.18 ± 0.052	2.39 ± 0.095	1.76 ± 0.042
YVIHGIELLSDLINILE [LIN1]		2.74 ± 0.25		2.43 ± 0.14
SNETIGEIQLLFQRQKL [IRR1]	2.61 ± 0.22	2.8 ± 0.17	3.14 ± 0.14	
SKEDTLRLCLDIVPYFL [RPN1]	1.92 ± 0.05	1.92 ± 0.033	1.58 ± 0.081	2.12 ± 0.057
LLDVKLAIDNMYILGMC [YCG1]	1.56 ± 0.086	1.51 ± 0.051	1.86 ± 0.071	2.12 ± 0.05
ITHRDLHYDKDYNLRIY [SSN8]	2.21 ± 0.051	2.1 ± 0.041	2.46 ± 0.043	2.18 ± 0.04
NEDARAIFNNEFDSDDD [RPN4]	3.09 ± 0.075	2.87 ± 0.096	3.42 ± 0.073	3.41 ± 0.097
LEEQQQLEDESSRLEFV [YML103C/NUP188]	3.43 ± 0.084	3.3 ± 0.086	3.39 ± 0.06	3.46 ± 0.08
RRAAYGVVRYVMESGAK [RPS3]	1.5 ± 0.1	1.83 ± 0.13		1.84 ± 0.094
VEIAYHKCDELITLFNK [RPO31]	3.16 ± 0.19	3.01 ± 0.087	2.99 ± 0.078	2.96 ± 0.1
QIEKKKICRGRMNTIIT [SIR4]	3.52 ± 0.17	3.43 ± 0.14	3.52 ± 0.24	2.63 ± 0.27
